US20230340055A1 (published 2023)
Where two headings read alike, the source gives them in different places. Each block holds one binder with its values, some of them ahead of it.

How the values were obtained:
[1] = target: T1, IL-2Rβγ (dimeric intermediate affinity IL-2 receptor), human, on cells (human, UniProt P14784 27-551; P31785 23-369); assay: cell-based or functional assay
T1 sequence (looked up) 1: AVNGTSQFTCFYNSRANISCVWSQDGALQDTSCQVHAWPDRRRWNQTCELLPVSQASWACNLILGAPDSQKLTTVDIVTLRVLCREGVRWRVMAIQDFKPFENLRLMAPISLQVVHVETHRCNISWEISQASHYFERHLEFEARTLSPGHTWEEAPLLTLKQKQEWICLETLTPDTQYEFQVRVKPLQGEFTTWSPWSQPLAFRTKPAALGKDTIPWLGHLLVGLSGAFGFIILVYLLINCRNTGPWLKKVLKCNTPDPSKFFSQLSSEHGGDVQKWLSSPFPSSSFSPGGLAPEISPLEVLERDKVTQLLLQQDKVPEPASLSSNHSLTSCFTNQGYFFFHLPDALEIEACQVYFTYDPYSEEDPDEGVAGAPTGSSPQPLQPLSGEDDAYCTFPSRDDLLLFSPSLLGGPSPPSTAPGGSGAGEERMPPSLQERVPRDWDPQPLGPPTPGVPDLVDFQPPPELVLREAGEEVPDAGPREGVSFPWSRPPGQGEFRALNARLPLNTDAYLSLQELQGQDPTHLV
T1 sequence (looked up) 2: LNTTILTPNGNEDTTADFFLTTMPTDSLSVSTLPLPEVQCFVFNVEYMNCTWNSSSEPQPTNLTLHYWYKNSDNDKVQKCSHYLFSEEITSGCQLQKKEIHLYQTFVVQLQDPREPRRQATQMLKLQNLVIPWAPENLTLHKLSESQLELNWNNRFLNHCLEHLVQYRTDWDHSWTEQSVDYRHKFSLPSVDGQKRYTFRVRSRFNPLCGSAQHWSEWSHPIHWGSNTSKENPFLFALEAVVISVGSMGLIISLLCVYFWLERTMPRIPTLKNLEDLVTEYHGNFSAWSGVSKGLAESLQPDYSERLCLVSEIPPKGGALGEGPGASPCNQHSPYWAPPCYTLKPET

[2] = target: T2, IL-2Rαβγ (trimeric high-affinity IL-2 receptor), human, on cells (human, UniProt P01589 22-272; P14784 27-551; P31785 23-369); assay: cell-based or functional assay
T2 sequence (looked up) 1: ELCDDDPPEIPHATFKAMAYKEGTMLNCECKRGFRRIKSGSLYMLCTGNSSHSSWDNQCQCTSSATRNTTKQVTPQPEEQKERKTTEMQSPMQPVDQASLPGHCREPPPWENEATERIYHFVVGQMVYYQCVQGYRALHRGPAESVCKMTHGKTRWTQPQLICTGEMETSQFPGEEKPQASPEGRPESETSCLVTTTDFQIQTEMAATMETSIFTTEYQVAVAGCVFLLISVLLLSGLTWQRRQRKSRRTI
T2 sequence (looked up) 2: T1 sequence (looked up) 1
T2 sequence (looked up) 3: T1 sequence (looked up) 2

[3] = target: T3, Human IL-2 Receptor alpha, Fc-Tag (Symansis, New Zealand) (human, UniProt P01589 22-240); assay: SPR; KD to IL-2Rα divided by KD to IL-2Rβ of the same compound
T3 construct: extracellular domain; Bought reagent; also called IL-2Rα; IL-2Rα-Fc; not shown: Fc-Tag (captured by anti-human IgG (Fc) antibody)
T3 sequence (looked up): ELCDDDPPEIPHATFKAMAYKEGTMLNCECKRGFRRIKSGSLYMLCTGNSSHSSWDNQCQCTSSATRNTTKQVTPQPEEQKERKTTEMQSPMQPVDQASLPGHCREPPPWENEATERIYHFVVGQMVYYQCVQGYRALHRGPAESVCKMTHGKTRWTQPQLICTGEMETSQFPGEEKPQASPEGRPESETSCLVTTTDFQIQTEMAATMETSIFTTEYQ
Description: (§1) For the determination of binding kinetics to IL-2Rα the following chip preparation was used: Human IL-2 Receptor alpha, Fc-Tag (Symansis, New Zealand) was diluted in HBS-EP running buffer (GE Healthcare, 10 mM HEPES, 150 mM NaCl, 3 mM EDTA, 0.05% Surfactant P20, pH 7.4) to approx. 0.67 µg/mL and immobilized at a flow rate of 50 µL/min for 60 s to achieve 80 - 100 response units (RU).
as §1, with “IL-2Rβ” for “IL-2Rα”, “beta,” for “alpha,”, “around 0.80” for “approx. 0.67”, “140” for “80”, “180” for “100”
(§2) (50 µL/min flow rate, 60 s contact time, 300 s dissociation time). Double referenced data (subtracted data from the reference flow cell and the buffer only samples) was analysed via a kinetic fit (1:1 binding model) to determine KD, kₐ and kd. Regeneration after each cycle was performed with 3 M MgCl₂.

[4] = target: T3, Human IL-2 Receptor alpha, Fc-Tag …; assay: calculated from the SPR KD values of Example 7; reference protein 5a
Description: as §1
as §1, with “IL-2Rβ” for “IL-2Rα”, “beta,” for “alpha,”, “around 0.80” for “approx. 0.67”, “140” for “80”, “180” for “100”
as §2

[5] = target: T4, Human IL-2 Receptor beta, Fc-Tag (Symansis, New Zealand) (human, UniProt P14784 27-240); assay: SPR (Biacore T200), IL-2Rβ-Fc captured on anti-human IgG (Fc) CM5 chip, IL-2 as analyte, multi-cycle kinetics, 1:1 kinetic fit, 25 C
T4 construct: extracellular domain; Bought reagent; also called IL-2Rβ; IL-2Rβ-Fc; not shown: Fc-Tag (captured by anti-human IgG (Fc) antibody)
T4 sequence (looked up): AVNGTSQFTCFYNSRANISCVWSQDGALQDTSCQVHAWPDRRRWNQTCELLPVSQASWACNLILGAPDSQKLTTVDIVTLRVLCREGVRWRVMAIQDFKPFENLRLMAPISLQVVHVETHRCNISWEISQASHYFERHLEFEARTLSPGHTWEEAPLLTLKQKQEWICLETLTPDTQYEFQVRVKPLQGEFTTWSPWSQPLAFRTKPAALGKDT
Description: as §1, with “IL-2Rβ” for “IL-2Rα”, “beta,” for “alpha,”, “around 0.80” for “approx. 0.67”, “140” for “80”, “180” for “100”
as §2

[6] = target: T5, IL-2-Rα/β/γ on the murine CTLL-2 T lymphocyte cell line (murine, UniProt P01590 22-268; P16297 27-539; P34902 23-369); assay: cell-based or functional assay
T5 sequence (looked up) 1: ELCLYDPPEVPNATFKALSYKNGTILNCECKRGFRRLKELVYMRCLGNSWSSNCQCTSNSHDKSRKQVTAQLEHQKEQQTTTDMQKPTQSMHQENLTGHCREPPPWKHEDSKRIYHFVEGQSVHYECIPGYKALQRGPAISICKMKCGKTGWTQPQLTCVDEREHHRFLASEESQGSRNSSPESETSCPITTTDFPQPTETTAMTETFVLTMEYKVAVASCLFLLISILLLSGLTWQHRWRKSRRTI
T5 sequence (looked up) 2: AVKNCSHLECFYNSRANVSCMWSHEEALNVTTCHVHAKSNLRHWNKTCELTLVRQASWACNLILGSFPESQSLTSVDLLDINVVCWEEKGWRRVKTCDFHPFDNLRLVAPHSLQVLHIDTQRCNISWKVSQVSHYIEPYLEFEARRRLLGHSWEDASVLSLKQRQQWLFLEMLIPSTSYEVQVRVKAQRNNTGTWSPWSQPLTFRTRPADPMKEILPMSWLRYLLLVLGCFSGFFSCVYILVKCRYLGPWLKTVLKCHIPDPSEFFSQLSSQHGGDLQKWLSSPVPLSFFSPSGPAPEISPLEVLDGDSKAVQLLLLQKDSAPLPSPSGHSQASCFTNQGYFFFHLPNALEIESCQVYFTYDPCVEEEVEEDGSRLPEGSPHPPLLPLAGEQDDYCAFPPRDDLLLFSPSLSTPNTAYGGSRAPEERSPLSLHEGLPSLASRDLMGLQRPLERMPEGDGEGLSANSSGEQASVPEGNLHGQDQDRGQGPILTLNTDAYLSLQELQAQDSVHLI
T5 sequence (looked up) 3: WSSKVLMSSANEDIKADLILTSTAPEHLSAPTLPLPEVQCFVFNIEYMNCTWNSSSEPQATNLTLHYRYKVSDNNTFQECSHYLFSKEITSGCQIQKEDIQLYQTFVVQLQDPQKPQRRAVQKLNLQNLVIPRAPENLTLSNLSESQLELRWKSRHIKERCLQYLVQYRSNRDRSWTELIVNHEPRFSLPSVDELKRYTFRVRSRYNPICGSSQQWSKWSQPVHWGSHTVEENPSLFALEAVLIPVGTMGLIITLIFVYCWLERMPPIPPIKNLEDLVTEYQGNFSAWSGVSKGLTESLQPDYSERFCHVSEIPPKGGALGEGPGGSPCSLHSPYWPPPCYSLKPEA

[7] = target: T1, IL-2Rβγ (dimeric intermediate affinity …); assay: cell-based or functional assay; remark: listed apart in the source
[8] = target: T1, IL-2Rβγ (dimeric intermediate affinity …); assay: cell-based or functional assay; remark: listed apart in the source
[9] = target: T2, IL-2Rαβγ (trimeric high-affinity IL-2 …); assay: cell-based or functional assay; remark: listed apart in the source
[10] = target: T1, IL-2Rβγ (dimeric intermediate affinity …); assay: cell-based or functional assay; remark: listed apart in the source
[11] = target: T2, IL-2Rαβγ (trimeric high-affinity IL-2 …); assay: cell-based or functional assay; remark: listed apart in the source

Ave EC50, pSTAT5 MFI, CD8+ T cells (human whole blood) [1]: 54.8 ng/ml
Ave EC50, pSTAT5 MFI, NK cells (human whole blood) [1]: 7.35 ng/ml
Fold reduction in potency vs WT-IL2 (1d), pSTAT5 MFI, CD8+ T cells [1]: 2.13 fold
Fold reduction in potency vs WT-IL2 (1d), pSTAT5 MFI, NK cells [1]: 1.22 fold
Ave EC50, pSTAT5 MFI, T regulatory cells (human whole blood) [2]: 33.5 ng/ml
Fold reduction in potency vs WT-IL2 (1d), pSTAT5 MFI, T regulatory cells [2]: 372 fold
KD-Ratio (α/β) [3]: > 4.02
ratio of Ratio protein 1f to Ratio protein 5a (KD to IL-2Rα / KD to IL-2Rβ) [4]: > 200
Kd [5]: 993 nM
B1: protein 1f (ligand)
chain: APTSSSTKKTQLQLEHLLLDLQMILNGINNYKNPKLTFGNSTKFYMPKKATELKHLQCLEEELKPLEEVLNLAQSKNFHLRPRDLISNINVIVLELKGSETTFMCEYADETATIVEFLNRWITFSQSIISTLT
modifications: N-glycosylated at the introduced N-glycosylation site (motif FGNST, peptide LTFGNSTK; heterogeneous glycans); heterogeneous O-glycosylation at the wildtype O-glycosylation site
notes: also called N-glycosylated IL2 (1f)

EC50 CTLL-2, STAT5 phosphorylation [6]: 1.57 µg/mL
Ratio (E50 CTLL-2 cells/EC50 HH cell) [6]: 39.5
EC50 HH cells, STAT5 phosphorylation [7]: 0.0398 µg/mL
B2: conjugate release mixture 8 (other)
chain: B1 chain
modifications: glycosylated as protein 6; residual conjugate 7 in the mixture carries one 40 kDa mPEG-linker on a primary amine of the N-terminus or a lysine side chain

Ave EC50, pSTAT5 MFI, CD8+ T cells (human whole blood) [8]: 12.6 ng/ml
Ave EC50, pSTAT5 MFI, NK cells (human whole blood) [8]: 3.07 ng/ml
Fold reduction in potency vs WT-IL2 (1d), pSTAT5 MFI, CD8+ T cells [8]: 1.44 fold
Fold reduction in potency vs WT-IL2 (1d), pSTAT5 MFI, NK cells [8]: 1.34 fold
Ave EC50, pSTAT5 MFI, T regulatory cells (human whole blood) [9]: 7.93 ng/ml
Fold reduction in potency vs WT-IL2 (1d), pSTAT5 MFI, T regulatory cells [9]: 437 fold
Ave EC50, pSTAT5 percent positive, CD8+ T cells (human whole blood) [10]: 1.69 ng/ml
Ave EC50, pSTAT5 percent positive, NK cells (human whole blood) [10]: 0.371 ng/ml
Fold reduction in potency vs WT-IL2 (1d), pSTAT5 percent positive, CD8+ T cells [10]: 1.58 fold
Fold reduction in potency vs WT-IL2 (1d), pSTAT5 percent positive, NK cells [10]: 2.01 fold
Ave EC50, pSTAT5 percent positive, T regulatory cells (human whole blood) [11]: 1.06 ng/ml
Fold reduction in potency vs WT-IL2 (1d), pSTAT5 percent positive, T regulatory cells [11]: 598 fold
B3: protein 1a (ligand)
chain: APTSSSTKKTQLQLEHLLLDLQMILNGINNYKNPKLTFGNSTKFYMPKKATELKHLQCLEEELKPLEEVLNLAQSKNFHLRPRDLISNINVIVLELKGSETTFMCEYADETATIVEFLNRWITFSQSIISTLTHHHHHH
modifications: N-glycosylated (at least 90% by SDS-PAGE shift, removed by PNGase F)
